T1: coxsackievirus and adenovirus receptor (CAR), as used in SPR (UniProt P78310 20-365)
T1 chain: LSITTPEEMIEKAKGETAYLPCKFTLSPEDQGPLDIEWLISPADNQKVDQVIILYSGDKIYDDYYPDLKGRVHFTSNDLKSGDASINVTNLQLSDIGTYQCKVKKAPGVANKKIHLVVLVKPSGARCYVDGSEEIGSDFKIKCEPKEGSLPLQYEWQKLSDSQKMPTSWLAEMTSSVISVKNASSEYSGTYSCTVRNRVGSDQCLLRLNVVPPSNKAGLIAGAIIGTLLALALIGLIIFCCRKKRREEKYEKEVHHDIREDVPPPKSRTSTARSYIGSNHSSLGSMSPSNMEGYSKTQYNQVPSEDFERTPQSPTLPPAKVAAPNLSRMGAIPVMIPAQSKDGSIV


Key:
[1] = biological target: coxsackievirus and adenovirus receptor (CAR) on CHO-CAR cells (UniProt P78310)
[2] = biological target: coxsackievirus and adenovirus receptor (CAR), as used in SPR (UniProt P78310); experiment: SPR; recombinant fiber knob protein over receptor; about 5,000 RU of DSG2-Fc amine coupled to a CM5 chip at 10 μl/min; in triplicate; CAR and CD46 surfaces as previously described (ref 36)
[3] = biological target: T1, coxsackievirus and adenovirus receptor …; experiment: SPR

| Molecule | inhibition of HAdV-C5 transduction (luciferase) of CHO-CAR cells preincubated with recombinant HAdV-D49K [1] [%] | Kd [2] [nM] | koff [3] [s⁻¹] |
| --- | --- | --- | --- |
| human adenovirus type 49 fiber knob protein (domain or fragment) | 50 | 190 | – |
| human adenovirus type 49 fiber knob protein (domain or fragment) MRGSHHHHHHGSKKGDLVAWNKENDRRTLWTTPDPSPNCKVSEEKDSKLTLVLTKCGSQILASVSLLVVKGKFANINNKTNPGEDYKKFSVKLLFDANGKLLTGSSLDGNYWNYKNKDSVIGSPYENAVPFMPNSTAYPKIINNGTANPEDKKSAAKKTIVTNVYLGGDAAKPVATTISFNKETESNCVYSITFDFAWNKTYKNVPFDSSSLTFSYIAQDAEDKNE | – | – | 0.0012 |

— article PMC7851562 (2020)
